From publication doi:10.1101/282814 (bioRxiv, 2018)

B1: human TRPC6 channel, full length, tags cleaved, in MSP2N2 lipid nanodiscs (natural protein, UniProt Q9Y210 1-931, looked up)
chain: MSQSPAFGPRRGSSPRGAAGAAARRNESQDYLLMDSELGEDGCPQAPLPCYGYYPCFRGSDNRLAHRRQTVLREKGRRLANRGPAYMFSDRSTSLSIEEERFLDAAEYGNIPVVRKMLEECHSLNVNCVDYMGQNALQLAVANEHLEITELLLKKENLSRVGDALLLAISKGYVRIVEAILSHPAFAEGKRLATSPSQSELQQDDFYAYDEDGTRFSHDVTPIILAAHCQEYEIVHTLLRKGARIERPHDYFCKCNDCNQKQKHDSFSHSRSRINAYKGLASPAYLSLSSEDPVMTALELSNELAVLANIEKEFKNDYKKLSMQCKDFVVGLLDLCRNTEEVEAILNGDVETLQSGDHGRPNLSRLKLAIKYEVKKFVAHPNCQQQLLSIWYENLSGLRQQTMAVKFLVVLAVAIGLPFLALIYWFAPCSKMGKIMRGPFMKFVAHAASFTIFLGLLVMNAADRFEGTKLLPNETSTDNAKQLFRMKTSCFSWMEMLIISWVIGMIWAECKEIWTQGPKEYLFELWNMLDFGMLAIFAASFIARFMAFWHASKAQSIIDANDTLKDLTKVTLGDNVKYYNLARIKWDPSDPQIISEGLYAIAVVLSFSRIAYILPANESFGPLQISLGRTVKDIFKFMVIFIMVFVAFMIGMFNLYSYYIGAKQNEAFTTVEESFKTLFWAIFGLSEVKSVVINYNHKFIENIGYVLYGVYNVTMVIVLLNMLIAMINSSFQEIEDDADVEWKFARAKLWFSYFEEGRTLPVPFNLVPSPKSLFYLLLKLKKWISELFQGHKKGFQEDAEMNKINEEKKLGILGSHEDLSKLSLDKKQVGHNKQPSIRSSEDFHLNSFNNPPRQYQKIMKRLIKRYVLQAQIDKESDEVNEGELKEIKQDISSLRYELLEEKSQNTEDLAELIRELGEKLSMEPNQEETNR
B2: N-terminal GFP-tagged hTRPC6 (natural protein, human, UniProt Q9Y210 1-931, looked up)
chain: B1 chain

Experiments:
cryo-EM structure = biological target: the molecule itself; assay: cryo-EM structure
SEC = biological target: the molecule itself; assay: SEC

| Protein | stoichiometry N (cryo-EM structure) | stoichiometry N (SEC) |
| --- | --- | --- |
| B1 | 4 |  |
| B2 |  | 4 |
